Laboratory results taken from paper PMC9975939.

Biological target: T1, untagged NDP52 wild type (human), Q13137
T1 chain: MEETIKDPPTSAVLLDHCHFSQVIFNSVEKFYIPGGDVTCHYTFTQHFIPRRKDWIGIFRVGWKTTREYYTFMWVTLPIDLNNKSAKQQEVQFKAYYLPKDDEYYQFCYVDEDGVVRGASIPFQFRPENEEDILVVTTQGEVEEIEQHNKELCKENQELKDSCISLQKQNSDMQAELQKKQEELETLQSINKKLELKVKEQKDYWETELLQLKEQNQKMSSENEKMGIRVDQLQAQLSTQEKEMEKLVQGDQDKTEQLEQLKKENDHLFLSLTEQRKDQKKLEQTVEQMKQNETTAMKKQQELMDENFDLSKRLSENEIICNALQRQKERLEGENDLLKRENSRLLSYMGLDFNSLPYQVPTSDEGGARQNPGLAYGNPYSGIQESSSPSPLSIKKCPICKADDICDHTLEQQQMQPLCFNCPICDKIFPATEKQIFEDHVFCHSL
Assay: native gel or EMSA; blue native PAGE (4–16% NativePAGE gel, Coomassie G-250) of recombinant NDP52 WT and Mut, immunoblot
Conditions: remark: other sources report otherwise

stoichiometry N: 2
B1: untagged NDP52 wild type, Q13137 1-446 (natural protein)
chain: T1 chain
